Measured values from PMC4741643.

Molecular target: suppressor of MEK null (sMEK1), full-length human, pGilda fusion (human) (UniProt Q6IN85)
Assay: two-hybrid; EGY48 yeast cells; pGilda-sMEK1 as bait, pJG4-5 fusions as prey; growth on medium lacking leucine, blue colonies on X-gal plates with 2% galactose, β-galactosidase activity with ONPG

Sequence of UniProt Q6IN85 (Q6IN85 whole entry, the tested form may be a part): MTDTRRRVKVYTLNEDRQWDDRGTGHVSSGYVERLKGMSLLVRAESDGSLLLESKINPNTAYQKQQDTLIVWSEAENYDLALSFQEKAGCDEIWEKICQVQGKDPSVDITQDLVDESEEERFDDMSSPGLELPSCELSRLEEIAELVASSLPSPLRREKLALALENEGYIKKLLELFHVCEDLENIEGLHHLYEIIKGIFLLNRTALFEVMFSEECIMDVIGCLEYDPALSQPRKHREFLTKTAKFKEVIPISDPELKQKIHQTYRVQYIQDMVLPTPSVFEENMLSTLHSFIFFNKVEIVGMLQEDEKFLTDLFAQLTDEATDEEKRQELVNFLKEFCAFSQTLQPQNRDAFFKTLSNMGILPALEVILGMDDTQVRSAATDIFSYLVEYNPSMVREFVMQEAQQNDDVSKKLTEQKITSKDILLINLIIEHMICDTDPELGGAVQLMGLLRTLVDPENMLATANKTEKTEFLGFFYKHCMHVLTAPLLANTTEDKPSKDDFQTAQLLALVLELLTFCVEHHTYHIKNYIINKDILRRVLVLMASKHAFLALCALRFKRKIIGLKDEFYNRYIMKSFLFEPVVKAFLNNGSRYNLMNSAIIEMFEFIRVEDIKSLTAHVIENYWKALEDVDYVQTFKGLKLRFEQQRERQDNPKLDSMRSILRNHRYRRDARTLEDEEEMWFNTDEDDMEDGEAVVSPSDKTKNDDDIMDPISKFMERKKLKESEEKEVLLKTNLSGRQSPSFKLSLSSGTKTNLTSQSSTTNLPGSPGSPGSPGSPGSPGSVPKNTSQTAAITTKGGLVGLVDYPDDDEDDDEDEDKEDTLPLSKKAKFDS

vascular endothelial growth factor receptor 2 (VEGFR-2), full-length human, yeast two-hybrid construct (from UniProt P35968 1-1356)
β-galactosidase activity: 92.3 unit
